Test results reported in patent US20250034594A1, “RNA-GUIDED GENOME RECOMBINEERING AT KILOBASE SCALE” (THE BOARD OF TRUSTEES OF THE LELAND STANFORD JUNIOR …, priority 2021, published 2025).

B1: Homolog_E14: RecE, Pseudobacteriovorax antillogorgiicola; SEQ ID NO: 140 (protein, listed as Pseudobacteriovorax antillogorgiicola)
chain: MSKLSNLKVSNSDVDTLSRIRMKEGVYRDLPIESYHQSPGYSKTSLCQIDKAPIYLKTKVPQKSTKSLNIGTAFHEAMEGVFKDKYVVHPDPGVNKTTKSWKDFVKRYPKHMPLKRSEYDQVLAMYDAARSYRPFQKYHLSRGFYESSFYWHDAVTNSLIKCRPDYITPDGMSVIDFKTTVDPSPKGFQYQAYKYHYYVSAALTLEGIEAVTGIRPKEYLFLAVSNSAPYLTALYRASEKEIALGDHFIRRSLLTLKTCLESGKWPGLQEEILELGLPFSGLKELREEQEVEDEFMELVG
B2: Homolog_T11: RecT, Salmonella enterica; SEQ ID NO: 133 (protein, listed as Salmonella enterica)
chain: MTKQPPIAKADLQKTQGNRAPAAVNDKDVLCVINSPAMKAQLAAALPRHMTAERMIRIATTEIRKVPELRNCDSTSFIGAIVQCSQLGLEPGSALGHAYLLPFGNGKAKNGKKNVQLIIGYRGMIDLARRSGQIISLSARVVRECDEFSYELGLDEKLVHRPGENEDAPITHVYAVAKLKDGGVQFEVMTKKQVEKVRDTHSKAAKNAASKGASSIWDEHFEDMAKKTVIRKLFKYLPVSIEIQRAVSMDGKEVETINPDDISVIAGEYSVIDNPEE
B3: Homolog_T12: RecT, Acetobacter; SEQ ID NO: 135 (protein, listed as Acetobacter sp.)
chain: MNAPQKQNTRAAVKKISPQEFAEQFAAIIPQVKSVLPAHVTFEKFERVVRLAVRKNPDLLTCSPASLFMACIQAASDGLLPDGREGAIVSRWSSKKSCNEASWMPMVAGLMKLARNSGDIASISSQVVFEGEHFRVVLGDEERIEHERDLGKTGGKIVAAYAVARLKDGSDPIREIMSWGQIEKIRNTNKKWEWGPWKAWEDEMARKTVIRRLAKRLPMSTDKEGERLRSAIERIDSLVDISANVDAPQIAADDEFAAAAHGVEPQQIAAPDLIGRLAQMQSLEQVQDIEPQVSHAIQEADKRGDSDTANALDAALQSALSRTSTAKEEVPA
B4: Homolog_T14: RecT, Pseudobacteriovorax antillogorgiicola; SEQ ID NO: 139 (protein, listed as Pseudobacteriovorax antillogorgiicola)
chain: MGHLVSKTEQDYIKQHYAKGATDQEFEHFIGVCRARGLNPAANQIYFVKYRSKDGPAKPAFILSIDSLRLIAHRTGDYAGCSEPIFTDGGKACTVTVRRNLKSGETGNFSGMAFYDEQVQQKNGRPTSFWQSKPRTMLEKCAEAKALRKAFPQDLGQFYIREEMPPQYDEPIQVHKPKALEEPRFSKSDLSRRKGLNRKLSALGVDPSRFDEVATFLDGTPDRELGQKLKLWLKEAGYGVNQ
B5: Homolog_T13: RecT, Salmonella enterica subsp. enterica serovar Javiana str. 10721; SEQ ID NO: 137 (protein, listed as Salmonella enterica)
chain: MPKQPPIAKADLQKTQGARTPTAVKNNNDVISFINQPSMKEQLAAALPRHMTAERMIRIATTEIRKVPALGDCDTMSFVSAIVQCSQLGLEPGGALGHAYLLPFGNRNEKSGKKNVQLIIGYRGMIDLARRSGQIASLSARVVREGDDFSFEFGLEEKLVHRPGENEDAPVTHVYAVARLKDGGTQFEVMTRKQIELVRAQSKAGNNGPWVTHWEEMAKKTAIRRLFKYLPVSIEIQRAVSMDEKETLTIDPADASVITGEYSVVENAGVEENVTA
B6: Homolog_E13: RecE, Salmonella enterica subsp. enterica serovar Javiana str. 10721; SEQ ID NO: 138 (protein, listed as Salmonella enterica)
chain: MYYDIPNEAYHAGPGVSKSQLDDIADTPAIYLWRKNAPVDTEKTKSLDTGTAFHCRVLEPEEFSKRFIIAPEFNRRTSAGKEEEKTFLEECTRTGRTVLTAEEGRKIELMYQSVMALPLGQWLVESAGYAESSVYWEDPETGILCRCRPDKIIPEFHWIMDVKTTADIQRFRTAYYDYRYHVQDAFYSDGYRAQFGEIPTFVFLVASTTAECGRYPVEIFMMGEDAKLAGQREYRRNLQTLAECLNNDEWPAIKTLSLPRWAKENANA
B7: Homolog_T10: RecT, Shigella sonnei; SEQ ID NO: 131 (protein, listed as Shigella sonnei)
chain: MTKQPPIAKADLQKTQENRAPAAIKNNDVISFINQPSMKEQLAAALPRHMTAERMIRIATTEIRKVPALGNCDTMSFVSAIVQCSQLGLEPGSALGHAYLLPFGNKNEKSGKKNVQLIIGYRGMIDLARRSGQIASLSARVVREGDEFNFEFGLDEKLIHRPGENEDAPVTHVYAVARLKDGGTQFEVMTRRQIELVRSQSKAGNNGPWVTHWEEMAKKTAIRRLFKYLPVSIEIQRAVSMDEKEPLTIDPADSSVLTGEYSVIDNSEE
B8: Homolog_E11: RecE, Salmonella enterica; SEQ ID NO: 134 (protein, listed as Salmonella enterica)
chain: DRGLLTKEWRKGNRVSRITRTASGANAGGGNLTDRGEGFVHDLTSLARDVATGVLARSMDVDIYNLHPAHAKRVEEIIAENKPPFSVFRDKFITMPGGLDYSRAIVVASVKEAPIGIEVIPAHVTEYLNKVLTETDHANPDPEIVDIACGRSSAPMPQRVTEEGKQDDEEKPQPSGAMADEQATAETVEPNATEHHQNTQPLDAQSQVNSVDAKYQELRAELQEARKNIPSKNPVDADKLLAASRGEFVDGISDPNDPKWVKGIQTRDSVYQNQPETEKISPDAKQPEPVVQQEPETVCNACGQTGGDNCPDCGAVMGDATYQETFGEENQVEAKEKDPEEMEGAEHPHNENAGSDPHRDCSDETGEVADPVIVEDIEPGIYYGISNENYHAGPGVSKSQLDDIADTPALYLWRKNAPVDTTKTKTLDLGTAFHCRVLEPEEFSNRFIVAPEFNRRTNAGKEEEKAFLMECASTGKTVITAEEGRKIELMYQSVMALPLGQWLVESAGHAESSIYWEDPETGILCRCRPDKIIPEFHWIMDVKTTADIQRFKTAYYDYRYHVQDAFYSDGYEAQFGVQPTFVFLVASTTVECGRYPVEIFMMGEEAKLAGQQEYHRNLRTLADCLNTDEWPAIKTLSLPRWAKEYAND
B9: Homolog_E12: RecE, Acetobacter; SEQ ID NO: 136 (protein, listed as Acetobacter sp.)
chain: MVISKSGIYDLTNEQYHADPCPEMSLSSSGARDLLSSCPAKFIAAKQLPQQNKRCFDIGSAGHLMVLEPHLFDQKVCEIKHPDWRTKAAKEERDAAYAEGRIPLLSREVEDIRAMHSVVWRDSLGARAFSGGKAEQSLVWRDEEFGIWCRLRPDYVPNNAVRIFDYKTATNGSPDAFMKEIYNRGYHQQAAWYLDGYEAVTGHRPREFWFVVQEKTAPFLLSFFQMDEMSLEIGRTLNRQAKGIFAWCLRNNCWPGYQPEVDGKVRFFTTSPPAWLVREYEFKNEHGAYEPPEIKRKEVA
B10: Homolog_E9: RecE, Bacillus sp. MUM 116; SEQ ID NO: 130 (protein, listed as Bacillus sp.)
chain: MTYAADETLVQLLLSVDGKQLLLGRGLKKGKAQYYINEVPSKAKEFEEIRDQLFDKDLFMSLFNPSYFFTLHWEKQRAMMLKYVTAPVSKEVLKNLPEAQSEVLERYLKKHSLVDLEKIHKDNKNKQDKAYISAQSRTNTLKEQLMQLTEEKLDIDSIKAELAHIDMQVIELEKQMDTAFEKNQAFNLQAQIRNLQDKIEMSKERWPSLKNEVIEDTCRTCKRPLDEDSVEAVKADKDNRIAEYKAKHNSLVSQRNELKEQLNTIEYIDVTELREQIKELDESGQPLREQVRIYSQYQNLDTQVKSAEADENGILQDLKASIFILDSIKAFRGKEAEMQAEKVQALFTTLSVRLFKQNKGDGEIKPDFEIEMNDKPYRTLSLSEGIRAGLELRDVLSQQSELVTPTFVDNAESITSFKQPNGQLIISRVVAGQELKIEAVSE
B11: Homolog_E10: RecE, Shigella sonnei; SEQ ID NO: 132 (protein, listed as Shigella sonnei)
chain: DRGLLTKEWRKGNRVSRITRTASGANAGGGNLTDRGEGFVHDLTSLARDIATGVLARSMDVDIYNLHPAHAKRIEEIIAENKPPFSVFRDKFITMPGGLDYSRAIVVASVKEAPIGIEVIPAHVTAYLNKVLTETDHANPDPEIVDIACGRSSAPMPQRVTEEGKQDDEEKLQPSGTTADEQGEAETMEPDATKHHQDTQPLDAQSQVNSVDAKYQELRAELHEARKNIPSKNPVDADKLLAASRGEFVDGISDPNDPKWVKGIQTRDSVYQNQPETEKTSPDMKQPEPVVQQEPEIAFNACGQTGGDNCPDCGAVMGDATYQETFDEENQVEAKENDPEEMEGAEHPHNENAGSDPHRDCSDETGEVADPVIVEDIEPGIYYGISNENYHAGPGVSKSQLDDIADTPALYLWRKNAPVDTTKTKTLDLGTAFHCRVLEPEEFSNRFIVAPEFNRRTNAGKEEEKAFLMECASTGKMVITAEEGRKIELMYQSVMALPLGQWLVESAGHAESSIYWEDPETGILCRCRPDKIIPEFHWIMDVKTTADIQRFKTAYYDYRYHVQDAFYSDGYEAQFGVQPTFVFLVASTTIECGRYPVEIFMMGEEAKLAGQLEYHRNLRTLADCLNTDEWPAIKTLSLPRWAKEYAND

Tests used:
HSP90AA1 locus = test: mKate knock-in gene-editing assay, RecE/RecT homologs, HSP90AA1 locus; type: cell-based, human; settings: HEK293 cells, MCP fusion, n=3
Experimental: (§1) Transfection HEK293T cells were seeded into 96-well plates (Corning) 12-24 hours prior to transfection at a density of 30,000 cells/well, and 250 ng of total DNA was transfected per well. HeLa and HepG2 cells were seeded into 48-well plates (Corning) one day prior to transfection at a density of 50,000 and 30,000 cells/well respectively, and 400 ng of total DNA was transfected per well. Transfections were performed with Lipofectamine 3000 (Life Technologies) following the manufacturer's instructions.
(§2) Fluorescence-activated cell sorting (FACS) mKate knock-in efficiency was analyzed on a CytoFLEX flow cytometer (Beckman Coulter; Stanford Stem Cell FACS Core). 72 hours after transfection, cells were washed once with PBS and dissociated with TrypLE Express Enzyme (Thermo Fisher Scientific). Cell suspension was then transferred to a 96-well U-bottom plate (Thermo Fisher Scientific) and centrifuged at 300×G for 5 minutes. After removing the supernatant, pelleted cells were resuspended with 50 μl 4% FBS in PBS, and cells were sorted within 30 minutes of preparation.
(§3) 15 different species of microbes having RecE/RecT proteins were selected for a screen of various RecE and RecT proteins across the microbial kingdom (Table 3). Each protein was codon-optimized and synthesized. As previously described for E. coli RecE/RecT based REDIT systems, each protein was fused via E-XTEN linker to the MCP protein with additional nuclear localization signal. mKate knock-in gene-editing assay was used to measure efficiencies at DYNLT1 locus (FIG. 26A, Table 4) and HSP90AA1 locus (FIG. 26B, Table 4).

DYNLT1 locus = test: mKate knock-in gene-editing assay, RecE/RecT homologs, DYNLT1 locus; type: cell-based, human; settings: HEK293 cells, MCP fusion, n=3
Experimental: as §1, §2, §3

| Molecule | Mean mKate+ (%), HSP90AA1 (HSP90AA1 locus) [%] | Mean mKate+ (%), DYNLT1 (DYNLT1 locus) [%] |
| --- | --- | --- |
| B1 | 5.7100 | 6.0167 |
| B2 | 4.9233 | 9.8467 |
| B3 | 5.2733 | 8.5900 |
| B4 | 4.7200 | 6.7700 |
| B5 | 5.7200 | 9.9567 |
| B6 | 5.6900 | 5.6333 |
| B7 | 5.5900 | 8.5333 |
| B8 | 3.1167 | 7.0567 |
| B9 | 6.0800 | 5.2633 |
| B10 | 5.6900 | 5.3233 |
| B11 | 3.5900 | 4.4000 |
